Source: PMC10693628, “Novel WYL domain-containing transcriptional activator acts in response to genotoxic stress in rapidly growing mycobacteria” (Communications Biology, 2023)
Positions count from the first letter of the chain named.

Experiments:
[1] = molecular target: Sumo-SiwR (His6-TEV-Sumo-linker fused to the N-terminus of SiwR, stress-involved WYL domain-containing regulator, MSMEG_1359) (Mycobacterium smegmatis) (UniProt A0QS56); experiment: SEC; analytical gel filtration, Superdex 200 Increase 10/300 GL, buffer GF (50 mM HEPES-KOH pH 7.0, 150 mM NaCl, 0.5 mM TCEP, 1 mM EDTA); SiwR 40 uM protomer, MSMEG_1357 or MSMEG_1356 100 uM protomer; incubated at 37 °C for 20 min, run at 0.5 mL/min at room temperature
[2] = molecular target: MSMEG_1356 (DUF664 family protein, DinB/YfiT-like putative metalloenzymes superfamily) (Mycobacterium smegmatis) (UniProt A0QS54); experiment: SEC; gel filtration step of the purification, Superdex 75 10/300 GL 24 mL, after dialysis against buffer D (50 mM HEPES-KOH pH 7.0, 150 mM NaCl, 0.5 mM TCEP)
[3] = molecular target: MSMEG_1356 (DUF664 family protein, DinB/YfiT-like putative metalloenzymes superfamily) (Mycobacterium smegmatis) (UniProt A0QS54); experiment: SEC; analytical gel filtration, Superdex 200 Increase 10/300 GL, buffer GF (50 mM HEPES-KOH pH 7.0, 150 mM NaCl, 0.5 mM TCEP, 1 mM EDTA); SiwR 40 uM protomer, MSMEG_1357 or MSMEG_1356 100 uM protomer; incubated at 37 °C for 20 min, run at 0.5 mL/min at room temperature
[4] = molecular target: the molecule itself; experiment: as above
Sumo-SiwR [5] = molecular target: T1, Sumo-SiwR (Mycobacterium smegmatis, UniProt A0QS56 1-320); experiment: fluorescence anisotropy; Kd for SiwR dimer; EMSA: 5 mM HEPES-KOH pH 7.0, 30 mM NaCl, 2.5% Ficoll 400K, 1% glycerol, 5 nM probe (10 nM in Fig. 2a legend), 37 °C 15 min; anisotropy: 5 mM HEPES-KOH pH 7, 30; conditions: protein: recombinant; tags: His6-TEV-Sumo N-terminal fusion; chain copies: 2; label: 5'-FAM on strand 2; blunt
T1 sequence: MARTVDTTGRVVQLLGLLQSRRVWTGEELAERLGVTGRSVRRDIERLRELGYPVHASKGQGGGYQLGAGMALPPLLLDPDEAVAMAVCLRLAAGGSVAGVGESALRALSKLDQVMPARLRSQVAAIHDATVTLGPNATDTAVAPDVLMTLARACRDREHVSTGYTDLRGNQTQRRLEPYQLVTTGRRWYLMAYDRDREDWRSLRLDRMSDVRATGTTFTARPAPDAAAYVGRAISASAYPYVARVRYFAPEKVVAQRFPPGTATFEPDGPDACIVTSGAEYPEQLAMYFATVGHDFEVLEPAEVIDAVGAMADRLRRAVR

Sumo-SiwR R204A-R207A [6] = molecular target: T2, Sumo-SiwR R204A-R207A (Mycobacterium smegmatis, UniProt A0QS56 1-320, R204A;R207A); experiment: EMSA; comparable to wild type; EMSA: 5 mM HEPES-KOH pH 7.0, 30 mM NaCl, 2.5% Ficoll 400K, 1% glycerol, 5 nM probe (10 nM in Fig. 2a legend), 37 °C 15 min; anisotropy: 5 mM HEPES-KOH pH 7, 30; conditions: protein: recombinant; tags: His6-TEV-Sumo N-terminal fusion; chain copies: 2; label: 5'-FAM on strand 2; blunt
T2 sequence: T1 sequence with R204A, R207A

Sumo-SiwR [7] = molecular target: T1, Sumo-SiwR; experiment: fluorescence anisotropy; EMSA: 5 mM HEPES-KOH pH 7.0, 30 mM NaCl, 2.5% Ficoll 400K, 1% glycerol, 5 nM probe (10 nM in Fig. 2a legend), 37 °C 15 min; anisotropy: 5 mM HEPES-KOH pH 7, 30; conditions: protein: recombinant, tags: His6-TEV-Sumo N-terminal fusion, chain copies: 2
Sumo-SiwR R204A-R207A [8] = molecular target: T2, Sumo-SiwR R204A-R207A; experiment: as above; conditions: protein: recombinant; tags: His6-TEV-Sumo N-terminal fusion; chain copies: 2; label: FAM
Sumo-SiwR [9] = molecular target: T1, Sumo-SiwR; experiment: EMSA; EMSA: 5 mM HEPES-KOH pH 7.0, 30 mM NaCl, 2.5% Ficoll 400K, 1% glycerol, 5 nM probe (10 nM in Fig. 2a legend), 37 °C 15 min; anisotropy: 5 mM HEPES-KOH pH 7, 30; conditions: protein: recombinant; tags: His6-TEV-Sumo N-terminal fusion; chain copies: 2; label: 5'-FAM on strand 1; blunt

Molecule “Sumo-SiwR (His6-TEV-Sumo-linker fused to the N-terminus of SiwR, stress-involved WYL domain-containing regulator, MSMEG_1359) (from UniProt A0QS56 1-320) (natural protein)” has a stoichiometry N [1] of 2.

With “MSMEG_1356 (DUF664 family protein, DinB/YfiT-like putative metalloenzymes superfamily) (from UniProt A0QS54 1-203) (natural protein)” the stoichiometry N [2] was 2 and the stoichiometry N [3] was 2.

B1: MSMEG_1357 (DinB_2 family protein, DinB/YfiT-like putative metalloenzymes superfamily) (natural protein, Mycobacterium smegmatis, UniProt A0QS55 1-175, looked up)
chain: MDIDLIADQLDFHWTHQLRPRLDGLTDDEYFWQPVPGCWTVHADGSIDFSYPEPQPTPFTTIAWRLAHVIVGVLAMRNHSHFGGPPADYQTWPYATDAKTALEQLDDAHRNWITGVRALSEDDLQRPVGPAEGPWADHPMSELVLHINREVIHHGAEIACIRDLYAHTNNTAEEN
notes: MSMEG_1357, DinB_2 family (pfam12867) protein of Mycobacterium smegmatis; expressed from a pET21-His6-TEV-MSMEG_1357 plasmid; The construct name puts His6-TEV before the protein; No TEV cleavage is described; also called His6-TEV-MSMEG_1357
In the case of B1, the “stoichiometry N” value [4] is reported as 2.

B2: msmeg_1357-56 promoter (dsDNA)
DNA 1: TGACCCACCCTGACAGGCATATAGGACAGTTCCGGTCCTAAAAGTGCGGCAGACTTGTCG
DNA 2: CGACAAGTCTGCCGCACTTTTAGGACCGGAACTGTCCTATATGCCTGTCAGGGTGGGTCA
B2 was tested, and the Kd (Sumo-SiwR [5]) was 651 nM and the binding result (Sumo-SiwR R204A-R207A [6]) was “binds”.

With TTTTTTTTTTTTTTTTTTTT (ssDNA) [polyT20] the Kd (Sumo-SiwR [7]; label: FAM) was 182 nM and the binding result (Sumo-SiwR R204A-R207A [8]) was “no binding”.

B3: fragment a (dsDNA)
DNA 1: GTGACCCACCCTGACAGGCATATAGGACAGT
DNA 2: ACTGTCCTATATGCCTGTCAGGGTGGGTCAC
B3: no binding (Sumo-SiwR [9]).

B4: fragment b (dsDNA)
DNA 1: TCCGGTCCTAAAAGTGCGGCAGACTTGTCGC
DNA 2: GCGACAAGTCTGCCGCACTTTTAGGACCGGA
B4: no binding (Sumo-SiwR [9]).

B5: fragment c (dsDNA)
DNA 1: TGACAGGCATATAGGACAGTTCCGGTCCTAAAAGTGCGGC
DNA 2: GCCGCACTTTTAGGACCGGAACTGTCCTATATGCCTGTCA
B5: binds (Sumo-SiwR [9]).

B6: fragment d (dsDNA)
DNA 1: GGCATATAGGACAGTTCCGGTCCTAAAAGT
DNA 2: ACTTTTAGGACCGGAACTGTCCTATATGCC
B6: binds (Sumo-SiwR [9]).

Work on CGTCAGTCCAGT (ssDNA) [12-nt ssDNA] yielded a Kd (Sumo-SiwR [7]; label: 5'-FAM) of 178 nM.

For CGTCAGTCCAGT (ssDNA, 8-oxoguanine at position 6) [12-nt ssDNA 8-oxoG], the Kd (Sumo-SiwR [7]; label: 5'-FAM) was 227 nM.

B7: 5' tailed DNA (dsDNA)
DNA 1: CGTCAGTCCAGT
DNA 2: GTCAGCAGCCTAACTGGACTGACG
B7 gave a Kd (Sumo-SiwR [7]; label: 5'-FAM on strand 1, 12 bp duplex, 5' overhang 12 nt on strand 2) of 306 nM.

B8: 3' tailed DNA (dsDNA)
DNA 1: GCAGTCAGGTCAATCCGACGACTG
DNA 2: TGACCTGACTGC
Molecule B8 has a Kd (Sumo-SiwR [7]; label: FAM on strand 1, 12 bp duplex, 3' overhang 12 nt on strand 1) of 702 nM.

B9: DNA fork mimic (dsDNA)
DNA 1: CGTCAGTCCAGTATCCGACGACTG
DNA 2: CAGTCGTCGGATTGACCTGACTGC
For B9, the Kd (Sumo-SiwR [7]; label: 5'-FAM on strand 1, fork 1:2, 12 bp duplex with 12-nt 5' tail (strand 1) and 12-nt 3' tail (strand 2)) was 898 nM.

CGUCAGUCCAGU (ssRNA) [12-nt ssRNA]: no binding (Sumo-SiwR [7]).
